Test results as given in EP2646050B1 (mAB-Factory GmbH, dated 2016).

Columns and labels:
Test in all cases: peptide SPOT membrane
[1] = target: 15mer peptide 55 of H5 (A/Anhui/1/2005) (Influenza A virus A/Anhui/1/2005 (H5N1))
[2] = target: 15mer peptide 56 of H5 (A/Anhui/1/2005) (Influenza A virus A/Anhui/1/2005 (H5N1))
[3] = target: 15mer peptide 57 of H5 (A/Anhui/1/2005) (Influenza A virus A/Anhui/1/2005 (H5N1))

Measured: binding result

B1: scFv-murine IgG1 Fc fusion of clone 8 (JM6_SC-D3) (Fc fusion)
chain: MAAVTLDESGGGLQKPGGGLSLVCKASGFPFSSYSMQWVRQAPGKGLEWVAGIGNAGSYTGYGAAVKGRATISRDNGQSTVRLQLNNLRAEDTGTYYCAKSAYAGSCAGCVDSIDAWGHGTEVMVSSGSASAPKLEEGEFSEARVALTQPSSVSANPGETVKITCSGDDSWYGWYQQKSPGSAPVTVIYYNNNRPSDIPLRFSGSTSGSTSTLTITGVQADDEAVYFCGSWDRSSGAGIFGAGTTLTVLGAA
no binding: all assays above
